Measurements reported in patent publication US20230220104A1.
Read-outs that look alike come from different tables or passages of the source.

Tests used:
Test in all cases: cell-based or functional assay
[1] = molecular target: human CD73 on cells (H322, MDA-MB-231, HT-144, T cells, CD73-transfected HEK293T) (human) (UniProt P21589)
[2] = molecular target: human CD73 on cells (H322, MDA-MB-231, HT-144, T cells, CD73-transfected HEK293T) (human) (UniProt P21589); remark: listed apart in the source
[3] = molecular target: human CD73 on cells (H322, MDA-MB-231, HT-144, T cells, CD73-transfected HEK293T) (human) (UniProt P21589); remark: listed apart in the source

Chain of human CD73 on cells (H322, MDA-MB-231, HT-144, T cells, CD73-transfected HEK293T) (human) (P21589 27-549): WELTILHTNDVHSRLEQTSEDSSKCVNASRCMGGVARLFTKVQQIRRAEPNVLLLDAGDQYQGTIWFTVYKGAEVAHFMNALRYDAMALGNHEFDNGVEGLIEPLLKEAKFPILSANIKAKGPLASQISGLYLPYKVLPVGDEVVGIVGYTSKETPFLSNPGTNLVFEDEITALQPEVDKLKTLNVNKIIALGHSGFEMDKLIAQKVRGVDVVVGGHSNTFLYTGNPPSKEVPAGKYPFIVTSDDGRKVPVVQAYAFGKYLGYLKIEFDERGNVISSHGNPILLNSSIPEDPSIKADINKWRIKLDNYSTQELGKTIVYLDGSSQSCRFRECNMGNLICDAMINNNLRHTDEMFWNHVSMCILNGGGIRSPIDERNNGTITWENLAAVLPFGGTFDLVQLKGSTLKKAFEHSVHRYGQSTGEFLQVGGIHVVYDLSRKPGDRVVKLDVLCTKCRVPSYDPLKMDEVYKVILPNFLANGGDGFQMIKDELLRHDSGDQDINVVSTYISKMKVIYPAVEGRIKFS

IC50 of AMP degradation suppressive function, H322 cells [1]: 0.02 mg/L | IC50 of AMP degradation suppressive function, H322 cells [2]: 0.04 mg/L | IC50 of AMP degradation suppressive function (cell line of Table 7 not stated; H322 in FIG. 12) [3]: 0.007 mg/L | IC50 of AMP degradation suppressive function, H322 cells [3]: 0.091 mg/L | IC50 of AMP degradation suppressive function, MDA-MB-231 cells [3]: 0.111 mg/L
Substance: Benchmark antibody (antibody having the same sequences as the published variable regions of MEDI9447)
